Experimental data from US7968692B2, “Elongase genes and uses thereof” (Abbott Laboratories, priority 1998, dated 2011).

Test system: S. cerevisiae 334
Assay: Human elongase HSELO1 activity in yeast
Type: cell-based, Saccharomyces cerevisiae
Experimental: The construct pRAE-58-A1 was transformed into S. cerevisiae 334 (Hoveland et al., supra) and screened for elongase activity. The negative control strain was S. cerevisiae 334 containing pYX242 vector. The cultures were grown for 24 hours at 30° C., in selective media (Ausubel et al., supra), in the presence of 25 μM of GLA or AA. In this study, DGLA or adrenic acid (ADA, 22:4n-6), respectively, was the predicted product of human elongase activity. […] Thus, the human elongase converts both 18 and 20 carbon chain long PUFAs to their respective elongated fatty acids.
To further confirm the substrate specificity of the human elongation enzyme, described above and referred to herein as HSELO1, the recombinant yeast strain 334(pRAE-58-A1) was grown in minimal media containing n-6 fatty acids GLA, AA, or n-3 fatty acids ALA, STA, or EPA. […] The levels of these fatty acids were 7.29% (DGLA), 6.26% (ADA), 6.15% (ETrA), 10.06% (ETA), and 6.66% (DPA), respectively, of the total fatty acids in the strain containing the pRAE-58-A1 sequence.
To confirm this hypothesis, 25 μM of exogenous OA was added as a substrate to the recombinant yeast strain 334(pRAE-58-A1).
To determine whether the substrate concentration affects the conversion of 18 and 20 carbon fatty acids to the respective elongated products, two different concentrations of GLA, AA, and EPA were examined (FIG. 52).
Although the addition of more substrates led to higher percentages of the two carbon elongated products, the overall conversion rate decreased by at least 35%.
To further confirm the substrate specificity of HSELO1p, the recombinant yeast strain 334(pRAE-58-A1) was grown in minimal media containing 25 μM of saturated, monounsaturated, or PUFAs. […] However, this is not an increase in the level of OA compared to the samples where PTA was not added, as OA was 25-31% of the total fatty acids in all samples. […] The levels of these fatty acids were 0.74% (C20:2n-6), 2.46% (DGLA), and 2.14% (ADA), respectively, of the total fatty acids in the lysates of 334(pRAE-58-A1). […] HSELO1p is also involved in the elongation of n-3 PUFAs ALA, STA, and EPA, but not DPA (FIG. 53C). […] The levels of these fatty acids were 1.03% ETrA, 2.24% (ETA), and 3.19% (DPA), respectively, of the total fatty acids in the strain containing the pRAE-58-A1 sequence.

B1: HSELO1: human elongase from liver cDNA (SEQ ID NO:3), expressed in yeast from pRAE-58-A1 (protein, listed as Homo sapiens)
chain: MEHFDASLSTYFKALLGPRDTRVKGWFLLDNYIPTFICSVIYLLIVWLGPKYMRNKQPFSCRGILVVYNLGLTLLSLYMFCELVTGVWEGKYNFFCQGTRTAGESDMKIIRVLWWYYFSKLIEFMDTFFFILRKNNHQITVLHVYHHASMLNIWWFVMNWVPCGHSYFGATLNSFIHVLMYSYYGLSSVPSMRPYLWWKKYITQGQLLQFVLTIIQTSCGVIWPCTFPLGWLYFQIGYIISLIALFTNFYIQTYNKKGASRRKDHLKDHQNGSVAAVNGHTNSFSPLENNVKPRKLRKD
B1 was tested, and the “level of ADA, of total fatty acids” value (25 μM AA, 24 hours at 30° C., FIG. 45) was 1.21%, the “conversion of AA to ADA” value (25 μM AA, FIG. 52) was 27.5% and the “level of ADA, of the total fatty acids” value (25 μM AA, FIG. 52) was 2.91%. For the same molecule, the “conversion of AA to ADA” value (25 μM AA, FIG. 53B) was 27.1%, the “level of ADA, of the total fatty acids” value (25 μM AA, FIG. 53B) was 2.14% and the “conversion of ALA to ETrA” value (25 μM ALA, FIG. 53C) was 22.2%. For the same molecule, the “level of ETrA, of the total fatty acids” value (25 μM ALA, FIG. 53C) was 1.03%, the “conversion of EPA to DPA” value (25 μM EPA, FIG. 52) was 70.3% and the “level of DPA, of the total fatty acids” value (25 μM EPA, FIG. 52) was 4.82%. For the same molecule, the “conversion of EPA to DPA” value (25 μM EPA, FIG. 53C) was 39.5%, the “level of DPA, of the total fatty acids” value (25 μM EPA, FIG. 53C) was 3.19% and the “level of DGLA, of total fatty acids” value (25 μM GLA, 24 hours at 30° C., FIG. 45) was 2.75%. For the same molecule, the “conversion of GLA to DGLA” value (25 μM GLA, FIG. 52) was 62.4%, the “level of DGLA, of the total fatty acids” value (25 μM GLA, FIG. 52) was 3.95% and the “conversion of GLA to DGLA” value (25 μM GLA, FIG. 53B) was 51.4%. The “level of DGLA, of the total fatty acids” value (25 μM GLA, FIG. 53B) was 2.46%, the “conversion of LA to C20:2n-6” value (25 μM LA, FIG. 53B) was 13.2% and the “level of C20:2n-6, of the total fatty acids” value (25 μM LA, FIG. 53B) was 0.74%. For the same molecule, the “conversion of STA to ETA” value (25 μM STA, FIG. 53C) was 61.9%, the “level of ETA, of the total fatty acids” value (25 μM STA, FIG. 53C) was 2.24% and the “conversion of OA to EA” value (25 μM of exogenous OA) was 8.9%. The “accumulation of EA, of the total fatty acids” value (25 μM of exogenous OA, FIG. 51) was 2.25%, the “elongation of monounsaturated fatty acids OA and EA” value (25 μM substrate) was “also not involved” and the “elongation of saturated fatty acids PA, SA, ARA, BA” value (25 μM substrate, FIG. 53A) was “not involved”. For the same molecule, the “elongation of n-6 PUFAs DGLA or ADA” value (25 μM substrate, FIG. 53B) was “but not DGLA or ADA”, the “elongation of n-3 PUFA DPA” value (25 μM substrate, FIG. 53C) was “but not DPA” and the “conversion of AA to ADA” value (100 μM AA, FIG. 52) was 15.7%. The “level of ADA, of the total fatty acids” value (100 μM AA, FIG. 52) was 3.90%, the “conversion of EPA to DPA” value (100 μM EPA, FIG. 52) was 45.7% and the “level of DPA, of the total fatty acids” value (100 μM EPA, FIG. 52) was 11.50%. The “conversion of GLA to DGLA” value (100 μM GLA, FIG. 52) was 39.8%, the “level of DGLA, of the total fatty acids” value (100 μM GLA, FIG. 52) was 9.56% and the “decrease of overall conversion rate” value (100 μM versus 25 μM of substrates GLA, AA, EPA) was “at least 35%”. For the same molecule, the “OA, of the total fatty acids” value (PTA added as a substrate, not an increase, OA was 25-31% in all samples) was 12.76%, the “endogenous conversion of C16:1n-7 to C18:1n-7” value (endogenous substrate) was 20.4% and the “endogenous conversion of C18:1n-7 to C20:1n-7” value (endogenous substrate) was 58.1%. The “conversion of AA to ADA” value (substrate AA, FIG. 51) was 42.7%, the “level of ADA, of the total fatty acids” value (substrate AA, FIG. 51) was 6.26% and the “conversion of ALA to ETrA” value (substrate ALA, FIG. 51) was 30.4%. For the same molecule, the “level of ETrA, of the total fatty acids” value (substrate ALA, FIG. 51) was 6.15%, the “conversion of EPA to DPA” value (substrate EPA, FIG. 51) was 71.7% and the “level of DPA, of the total fatty acids” value (substrate EPA, FIG. 51) was 6.66%. The “conversion of GLA to DGLA” value (substrate GLA, FIG. 51) was 78.3%, the “level of DGLA, of the total fatty acids” value (substrate GLA, FIG. 51) was 7.29% and the “conversion of STA to ETA” value (substrate STA, FIG. 51) was 79.2%. The “level of ETA, of the total fatty acids” value (substrate STA, FIG. 51) was 10.06%.
